According to publication PMC2217618 (Apoptosis, 2007):
[ ]: non-standard residue; d: D form.

Target: αvβ3 integrin (human (endogenous in HUVEC), UniProt P06756;P05106)
Test: radioligand binding

Sequence of αvβ3 integrin (P06756 31-1048, chain 1 of 2): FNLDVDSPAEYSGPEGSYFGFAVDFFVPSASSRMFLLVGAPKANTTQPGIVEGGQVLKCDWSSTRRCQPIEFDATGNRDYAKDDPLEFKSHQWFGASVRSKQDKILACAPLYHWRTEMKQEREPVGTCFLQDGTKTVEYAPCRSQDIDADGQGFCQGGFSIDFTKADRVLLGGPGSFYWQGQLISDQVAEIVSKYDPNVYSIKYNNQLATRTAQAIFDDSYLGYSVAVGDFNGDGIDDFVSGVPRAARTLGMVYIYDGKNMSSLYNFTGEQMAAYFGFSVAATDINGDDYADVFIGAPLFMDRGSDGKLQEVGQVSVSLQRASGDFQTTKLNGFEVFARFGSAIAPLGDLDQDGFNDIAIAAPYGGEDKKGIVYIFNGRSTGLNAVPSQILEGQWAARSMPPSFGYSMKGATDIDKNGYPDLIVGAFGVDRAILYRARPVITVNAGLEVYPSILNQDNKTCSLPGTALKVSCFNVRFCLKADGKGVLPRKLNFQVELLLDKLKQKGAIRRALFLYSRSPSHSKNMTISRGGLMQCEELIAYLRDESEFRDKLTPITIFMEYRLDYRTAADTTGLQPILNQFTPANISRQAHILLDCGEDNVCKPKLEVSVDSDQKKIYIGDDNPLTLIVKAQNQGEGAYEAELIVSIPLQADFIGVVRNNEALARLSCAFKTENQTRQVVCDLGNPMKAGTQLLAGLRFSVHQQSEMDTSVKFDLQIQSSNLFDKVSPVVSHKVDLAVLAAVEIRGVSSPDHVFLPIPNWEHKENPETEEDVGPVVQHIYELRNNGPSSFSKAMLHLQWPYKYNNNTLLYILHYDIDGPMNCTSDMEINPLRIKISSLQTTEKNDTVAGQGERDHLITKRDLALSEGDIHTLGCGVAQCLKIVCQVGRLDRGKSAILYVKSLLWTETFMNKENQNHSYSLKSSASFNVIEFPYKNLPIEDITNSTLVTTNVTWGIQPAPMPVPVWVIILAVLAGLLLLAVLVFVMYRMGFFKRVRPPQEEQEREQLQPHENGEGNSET
Sequence of αvβ3 integrin (P05106 27-788, chain 2 of 2): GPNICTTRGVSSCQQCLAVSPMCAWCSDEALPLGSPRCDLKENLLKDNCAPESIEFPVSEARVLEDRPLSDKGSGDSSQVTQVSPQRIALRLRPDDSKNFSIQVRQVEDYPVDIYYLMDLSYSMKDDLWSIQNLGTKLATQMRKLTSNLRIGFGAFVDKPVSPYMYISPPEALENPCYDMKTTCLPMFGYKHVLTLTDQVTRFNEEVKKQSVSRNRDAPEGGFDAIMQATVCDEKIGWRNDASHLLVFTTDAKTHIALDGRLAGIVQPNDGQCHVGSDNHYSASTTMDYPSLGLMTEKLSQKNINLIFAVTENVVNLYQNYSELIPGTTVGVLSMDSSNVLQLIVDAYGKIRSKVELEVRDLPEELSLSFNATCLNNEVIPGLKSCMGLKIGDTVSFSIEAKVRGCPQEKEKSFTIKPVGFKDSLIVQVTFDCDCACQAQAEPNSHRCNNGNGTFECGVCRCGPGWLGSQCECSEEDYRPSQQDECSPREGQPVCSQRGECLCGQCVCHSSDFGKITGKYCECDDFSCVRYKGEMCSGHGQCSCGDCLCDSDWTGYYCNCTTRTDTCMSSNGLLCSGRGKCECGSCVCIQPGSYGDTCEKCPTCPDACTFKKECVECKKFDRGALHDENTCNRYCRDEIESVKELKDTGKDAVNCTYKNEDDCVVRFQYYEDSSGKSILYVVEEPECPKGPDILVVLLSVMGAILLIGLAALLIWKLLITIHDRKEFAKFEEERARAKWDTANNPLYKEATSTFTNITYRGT

cyclo(RGD[dF]K(S‑acetylthioacetyl)) [RGD peptide c(RGDf(ε-S-acetylthioacetyl)K)]
IC50: 383 nM
